Like-named read-outs stand apart in the source and are kept apart here.
Legend:
[1] = system: H3396 cell membranes (BR96 antigen); format: binding, human; conditions: FIG. 10; ELISA, 10 μg/ml H3396 membranes
mice [2] = conditions: for % Survival / LD50: mice; for % Survival: >14 days; for LD50: single dose
[3] = system: protein synthesis in rabbit reticulocyte lysate with wheat germ ribosomes; conditions: cited from earlier work
mice [4] = conditions: intraperitoneal, literature; cited from earlier work
[5] = system: protein synthesis in rabbit reticulocyte lysate
liver = conditions: for liver lesions: histochemical analysis

B1: bryodin 1: type I ribosome-inactivating protein from the root of Bryonia dioica; 29 kDa band identical to the bryodin described by Stirpe (protein)
chain: DVSFRLSGATTTSYGVFIKNLREALPYERKVYNIPLLRSSISGSGRYTLLHLTNYADETISVAVDVTNVYIMGYLAGDVSYFFNEASATEAAKFVFKDAKKKVTLPYSGNYERLQTAAGKIRENIPLGLPALDSAITTLYYYTASSAASALLVLIQSTAESARYKFIEQQIGKRVDKTFLPSLATISLENNWSALSKQIQIASTNNGQFESPVVLIDGNNQRVSITNASARVVTSNIALLLNRNNIA
**Q.** With B1 as the molecule, how does the “binding to H3396 membranes” value [1] read?
**A.** no detectable binding

**Q.** What about the “% Survival” value (mice [2]; i.p., 10 mg/kg) of the same molecule?
**A.** 100%

**Q.** And the “% Survival” value (mice [2]; i.p., 12 mg/kg)?
**A.** 100%

**Q.** And the “% Survival” value (mice [2]; i.p., 14 mg/kg)?
**A.** 100%

**Q.** And the “% Survival” value (mice [2]; i.p., 16 mg/kg)?
**A.** 100%

**Q.** What about the “% Survival” value (mice [2]; i.v., 12 mg/kg) of the same molecule?
**A.** 100%

**Q.** What about the “% Survival” value (mice [2]; i.v., 16 mg/kg) of the same molecule?
**A.** 100%

**Q.** What about the “% Survival” value (mice [2]; i.v., 18 mg/kg) of the same molecule?
**A.** 100%

**Q.** What about the “% Survival” value (mice [2]; i.v., 20 mg/kg) of the same molecule?
**A.** 100%

**Q.** And the “ID50, inhibition of protein synthesis” value [3]?
**A.** 3.6 ng/mL

**Q.** What about the LD50 (mice [4]) of the same molecule?
**A.** 14.5 mg/kg

B2: bryodin 2: novel type I ribosome-inactivating protein of about 27,000 daltons isolated from the roots of Bryonia dioica (SEQ ID NO: 15) (protein)
chain: MRSIGFYSVLALYVGAHVTEDVDINFSLIGATGATYKTFIRNLRTKLTVGTPRVYDIPVLRNAAAGLARFQLVTLTNYNGESVTVALDVVNVYVVAYRAGNTAYFLADASTEANNVLFAGINHVRLPYGGNYDGLETAAGRISRENIELGFSEISSAIGNMFRHNPGTSVPRAFIVIIQTVSEAARFKYIEQRVSENVGTKFKPDPAFLSLQNAWGSLSEQIQIAQTRGGEFARPVELRTVSNTPTFVTNVNSPVVKGIALLLYFRVNVGTDNVFAMSLSTY
**Q.** What does the source list for B2?
**A.** binding to H3396 membranes [1]: no detectable binding; EC50 [5]: 0.017 nM; toxicity to mice relative to bryodin 1 (mice [2]; i.p. and i.v.): slightly more toxic to mice than bryodin 1; % Survival (mice [2]; i.p., 7 mg/kg): 100%; % Survival (mice [2]; i.p., 8 mg/kg): 50%; % Survival (mice [2]; i.p., 10 mg/kg): 0%; % Survival (mice [2]; i.p., 12 mg/kg): 0%; % Survival (mice [2]; i.v., 5 mg/kg): 100%; % Survival (mice [2]; i.v., 6 mg/kg): 100%; % Survival (mice [2]; i.v., 7 mg/kg): 100%; % Survival (mice [2]; i.v., 8 mg/kg): 75%; % Survival (mice [2]; i.v., 10 mg/kg): 75%; % Survival (mice [2]; i.v., 12 mg/kg): 0%; % Survival (mice [2]; i.v., 14 mg/kg): 0%; LD50 (mice [2]; intraperitoneal): 8 mg/kg; LD50 (mice [2]; intraperitoneal, listed as BD2): about 8 mg/kg; LD50 (mice [2]; intravenous): greater than 10 mg/kg; liver protein in blood chemistry screen (liver; blood chemistry, data not shown): increased liver protein; liver lesions (liver): showed liver lesions; liver lesions (liver; listed as BD2): presence of liver lesions; SGOT (liver; injected mice): elevated; SGPT (liver; injected mice): elevated; cause of death at lethal dose (liver; necropsy): liver toxicity was the cause of death

B3: gelonin: a type 1 ribosome-inhibiting protein (protein)
chain: GLDTVSFSTKGATYITYVNFLNELRVKLKPEGNSHGIPLLRKKCDDPGKCFVLVALSNDNGQLAEIAIDVTSVYVVGYQVRNRSYFFKDAPDAAYEGLFKNTIKTRLHFGGSYPSLEGEKAYRETTDLGIEPLRIGIKKLDENAIDNYKPTEIASSLLVVIQMVSEAARFTFIENQIRNNFQQRIRPANNTISLENKWGKLSFQIRTSGANGMFSEAVELERANGKKYYVTAVDQVKPKIALLKFVDKDPK
**Q.** For B3, which EC50 [5] is on record?
**A.** 0.049 nM
